Reference: PMC8956632

Target: 5-HT1AR-Rluc (UniProt P08908)
Assay: BRET
Details: HEK293 cells, basal (no agonist); parent: est. 0.27; read off a plot

OX1R-EGFP, sequence (O43613 whole entry, stated change not applied): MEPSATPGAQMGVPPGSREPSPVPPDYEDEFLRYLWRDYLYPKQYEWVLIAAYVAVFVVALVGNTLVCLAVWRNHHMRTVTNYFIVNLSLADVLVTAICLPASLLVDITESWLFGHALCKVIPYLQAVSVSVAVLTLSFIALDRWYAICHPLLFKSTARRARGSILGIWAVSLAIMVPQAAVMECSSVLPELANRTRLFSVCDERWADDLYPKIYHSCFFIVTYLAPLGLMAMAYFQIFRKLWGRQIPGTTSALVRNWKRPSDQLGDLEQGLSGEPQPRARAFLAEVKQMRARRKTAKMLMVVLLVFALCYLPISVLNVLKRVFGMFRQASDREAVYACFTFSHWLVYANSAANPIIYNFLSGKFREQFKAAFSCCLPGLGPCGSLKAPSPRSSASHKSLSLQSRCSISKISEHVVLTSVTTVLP
5-HT1AR-Rluc, sequence (P08908 whole entry): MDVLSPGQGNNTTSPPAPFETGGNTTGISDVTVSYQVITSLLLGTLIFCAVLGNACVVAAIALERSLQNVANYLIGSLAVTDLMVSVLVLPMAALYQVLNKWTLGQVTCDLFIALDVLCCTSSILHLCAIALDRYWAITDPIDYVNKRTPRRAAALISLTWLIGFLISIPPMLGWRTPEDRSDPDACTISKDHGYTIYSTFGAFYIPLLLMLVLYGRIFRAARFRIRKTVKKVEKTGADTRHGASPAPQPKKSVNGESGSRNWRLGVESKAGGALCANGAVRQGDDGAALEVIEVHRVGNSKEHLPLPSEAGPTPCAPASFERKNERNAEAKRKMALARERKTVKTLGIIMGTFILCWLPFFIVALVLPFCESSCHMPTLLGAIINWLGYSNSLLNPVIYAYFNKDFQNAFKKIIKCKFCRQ

OX1R-EGFP (from UniProt O43613) L168A
response: 0.27
